Assay results from the DeepSol protein solubility set.

Assay: soluble on expression in E. coli; label from the status in PepcDB or PDB records

SAASAALILPESPSMKKAVPLINAIDTGRFPRLLSRILQKLHLKAESSFSEEEEEKLQAAFSLEKQELHLVLETISFVLEQAVYHNVKPAALQQQLEMIHLRKDKAEAFASAWSAMGQETVEKFRQRILGPHKLETVGWQLNLQMAHSAQAKLQSPQAVLQLGVSKEDAKNVEKVLVEFNHKELFDFYNKLETIQAQLDSLT
soluble on expression in E. coli: soluble

MGSDKIHHHHHHMKNYKIVAIGDNVCDKYLSRGKMYPGGQCINTCVYGKMNGAETAYIGKYGNDEVAECVQNTLKEIGIDDSHCRHYEGENGFALVTLKNADRVFLGSNKGGIAKEHSYNFDENDFEYIKKFDLIYTNLNSYIEDNLKELHATGVPIAYDFSMRWTDEYLLKVCPYIDVAILSCAHLTAEEREKEMKKVQNYGVKIVLGTIGEDGSYVLYNGDFLYTSAIMAANIIDTMGAGDSYFSTFLCSLLQTSETGKLVEGTKESMKIRLESAMKSGAIFAANVCGMEGAFGYGVPIQGKTEI
soluble on expression in E. coli: not soluble

MGSDKIHHHHHHMELRHLRHFIVLARLKSFSKAANELHLAQPSLSRSIQKMEERLGASLLARDEKHFALTEYGRLVLAQGELIVSQLEYLESEIKTKQGLEKAKLVIGASPIPSNSIIGPAVGRFIRDNPDISLELKVESWSRLYKLLLKGELDMFIAETNATLLDQRDNVITQCLPQSQAIFCCRPHHPLTRLKTVYLPSLRDYPVGMPSAMPQLLRQRFEDLFEEDRHDFVGLVKYAQFQPIKSAIKECDMVVITPDISVREELASGELVALDVVGVPNIKASFSVVSMKNRRLSHSAEQFVDSLLTHSSAKAVGF
soluble on expression in E. coli: not soluble

MGSDKIHHHHHHNKSEDKLSGDDFWAQGNETNAEAFLLSIYNSFRNATMSQRPFLTYSGDMRCAPITAYSTGDKYVAYLANNDMGELRNTYPDDARGGLIMQWDVFYTAIQDANILLAEIDKVPGMDELKRSRFKAEAIFMRSLSYFFIVRAFGDVPYYTNAYNEAPLPRTNMVIVLQNCLADLQPLLDDDPGAEVLPWSYSSYSSKGIRASRGSVIALMMHINLWLVQFDAQNKEQYYRNVVSLGEELERNNGAYSLLDINRSSVIFAGGSDEGLFEIAQNINFNEIFMMNAKFSDNVSYSCLNKSMPLFCYSGDYLMTLFPMYEDDARKELWFDEKIYSTSVSSSAPKEIKKFWNIDTYGNGTITSNSGNQIVFRYAGALLLYAEALAALGTNDTKACELLNRVRNRAHASEINTSGSELMDAIFWERCRELIGEGHYYYDLVRTGKVYNRNYCMNPMTRTNFNVGAWTWPIHRNALKNNTQIGLNLFWE
soluble on expression in E. coli: not soluble

MSLKKIIITGALGQIGTELVIKCRERYGTENVLATDIRKPEPHSPVKNGPFEILDVTDRNRLFETVRYFNADTLMHMAALLSATAEKKPLVAWDLNMGGLINTLEAARRYQLKYFTPSSIGAFGISTPKVNTPQLTIQQPTTMYGINKVTGELLCQYYYVKFGVDTRSVRFPGLISHVKEPGGGITDYAVDMYFKAVRKGHYTSYINRYTYMDMMYMEDAIDAIIKLMEEDSVKLKTRNGYNLSAMSIEPEMLKQAIQVYYPDFTLDYDIDLERQDIALSWPDSIDTSCAQEEWGFDPKYDLPTMTKVMLEAIEKKQKEEGHHHHHH
soluble on expression in E. coli: soluble

MDDIVPDVLDAVPAGTIKVIYGDDLEVKQGNELTPTQVKDQPIVSWSGLEGKSNLLTLLMVDPDAPTRQDPKYREILHWSVVNIPGSNENPSGGHSLADYVGSGPPKDTGLHRYIFLLYRQENKIEETPTISNTTRTGRLNFNARDFAAKHGLGEPIAANYYQAQYDDYVPIRNKTIVG
soluble on expression in E. coli: soluble

MDQKSTTCLEALAKLSQQREHQTTPATLCSSEHFFANETIYSDATFLSTTEEAFISSPSSSTQGPKPGLKRVSTGPMTRILEGCQNDKPNSPELERVEEAEDNYSGTSSEEAFSQGIPYPHQVGGHGALSSFERGRVLKPAAKKEIDFYNFIYSDNLPSELEWLRTVTPKYFGQRKTQAKAKRILENQVTPFSQTSSVPVNTVLHIDRKDSERNIWKDQVGELVMDTNPWARACLLKELQKEDEVKSFIILEDLTCHLKKPCVLDCKMGTRHYDDDATEEKKKAHIEKATKTTSSSTGIRFTGMQVYKLPSHTFLFHDKYYGRQLKSHELKNELFEFFHNGVLLRVDIIEQFLSKLQWLYQHLENQHYFNFYSSSLLFVYEGDEMATCPISDVRMIDFAHTQRCVEEQQNDGYLFGLSNLIHLMKSLLEDERNEMR
soluble on expression in E. coli: soluble

MGSDKIHHHHHHMKVKSVSEILIYPPDRIVGDLWIVRNWVTKRNYKVSSPTLAILLYCKIPHTVGDILDFFYEKYGIKNELIHLGLKKLMATDLLLEVKQEMDGSNEVFGLEFDNWYKHNWYMALLYHLVSYDYPFIEDYVAKQRMINYSSQEIDSNRYKEYNSQVSYDIPKATEVKIRETNTSKQKCVNFADLLTMASLGYTRVGSLRVYWNGDPLILRTSPSGGSRHPTETYIVAINVEGLESGWYHISVKDSKLEQIKIGGTDPDDLRLLFPTTYVRPDFHVDLILIFTSIFERNMYRYREPRTFRTIHMDVGHLAATTEIICEKLGYKYLVQYSANDEGIEKFLGLSPLKEGYMASMAIGN
soluble on expression in E. coli: not soluble

MPVYFTKRAFLPDGWAADVQIAVDELGDIQRISTGSSSSGCQVLSGPVLPGMPNLHSHAFQRMMSGLAEVAGDPQDSFWTWRDLMYRLVQQLTPEQVGVIARQLYIEMLKGGYTQVAEFHYLHHSPDGSPYNDIGEMTAQLSQAAQDAGIGMTLLPVLYSYAGFGAQPAQQGQSRFIQDTESYLRQQQVIRRQLANQPLQNQGLCFHSLRAVELSQMQQILHVSDKQLPVHIHIAEQQKEVNDCLAWCGQRPVAWLYGHLPVDSRWCLVHATHLDTSELVMLANSQAVAGLCPTTEANLGDGIFPGVDYIHHQGRWGIGSDSHVSLDVVEELRWLEYGQRLRDQRRNRLTCERQPAVADLLYSQALAGGRQACGRQISQLAVGYRADWLVLDGDDPYIAGTRSASLLNRWLFAGGKSQIRDVYVAGKAVIVDRYHPLQQQTAQAFLAVLKACQQEV
soluble on expression in E. coli: not soluble

MSLVGDVYLGVGSASSEYWAAYIEGAKAVASSLGKDVNVIPSEFDGQKLLEQFGAVFAAGCEDCVVTVDPASNAFTKAMIERADTAGAKYVNLWNRPDEIHPWDTVPNTWIANISFDGVDSGYQNGMALCNALGGKGNIVALNGIPDNPPAKQRIAGLHKALQECPGLKLLDTQVGNWDQTQGQSITRAWLAKYGDELNGIFSANDGMALGAVAALREKGLVGKILVTGSDGSSDVIKLIEKGEMLSTMHIDGYVQGAYAVALAAAAVKGDIKMDELKQDQRDFFLSQTLVTKDNAASVLNSKKDASQFSYDALKGNFWAASVGQIPAGANEGHHHHHH
soluble on expression in E. coli: soluble

AHHHHHHGSAQLAGQPILILPEGTQRYVGRDAQRMNILAARIVAETIRTTLGPKGMDKMLVDSLGDIVITNDGATILDEMDIQHPAAKMMVEVAKTQDKEAGDGTTTAVVIAGELLRKAEELLDQNIHPSIIIKGYTLAAQKAQEILENIAKEVKPDDEEILLKAAMTSITGKAAEEEREYLAKLAVEAVKLVAEKEDGKYKVDIDNIKLEKKEGGSVRDTQLIRGVVIDKEVVHPGMPKRVEKAKIALINDALEVKETETDAEIRITSPEQLQAFLEQEERMLREMVEKIKEVGANVVFVQKGIDDLAQHYLAKYGIMAVRRVKKSDMEKLAKATGAKIVTNIRDLTPEDLGYAELVEERKVAGESMIFVEGCQNPKAVTILIRGGTEHVVDEVERALEDAIKVVKDILEDGKILAGGGAPEIELAIRLDEYAKEVGGKEQLAIEAFAEALKVIPRTLAENAGLDPIETLVKVIAAHKEKGPTIGVDVYEGEPADMLERGVIEPLRVKKQAIKSASEAAIMILRIDDVIAASKLEKEKEKEGEKGGGSEDFSSDLD
soluble on expression in E. coli: not soluble

RGIAVYVEHHNGNIHPVTYELIGKAREMASKIKQPVYCVFVGKDIKDKCSNLISYGVDEVFVYDEDEFKDFRIEPYSKAIENFIDKIKPTIVLVGGTTLGRSLAPRLAARFRTGLTADCTILDIQSNTDLDQIRPAFGGNIMAHINTPNNRPQFATVRYKIFSAPEKIENTTGKITLCKVEKKELKSKIKVLS
soluble on expression in E. coli: not soluble

MGSDKIHHHHHHMDGLLNPRESSKFIAENSRDVFIDSGGVRRVAELLLAKAAGPELRVEGWKALHELNPRAADEAAVNWVFVTDTLNFSFWSEQDEHKCVVRYRGKTYSGYWSLCAAVNRALDEGIPITSASYYATVTLDQVRNILRSDTDVSMPLVEERHRILNETGKILLEKFGGSFLNCVRESENSAQKLMHLVVESFPSYRDVTLFEGKRVSFYKRAQILVADTWSVLEGKGDGCFKDISSITMFADYRLPQVLAHLGALKYSDDLLKKLLKGEMLSYGDRQEVEIRGCSLWCVELIRDCLLELIEQKGEKPNGEINSILLDYYLWDYAHDHREDMKGIPFHRIRCIYY
soluble on expression in E. coli: not soluble

MTDQRRNVYFFHKQDQETNEQARSLTQLAEEHGFTVVNQHSDANIIASIGGDGTFLQAVRKTNFRDDCLYVGITKKGKAHLYCDFHSDEREKMVDAMTFEQIEVRKYPLIEVTVDQASPFHCLNEVSIRSSIIKTFVMDVLIDDLHFETFRGDGMIISTPTGSTAYNKSVAGAVVDPLLPCMQVSELASLNNNTYRTLGSPFVLSSDRKLTLRVVQDGNEHPIIGLDNEALSTRNVKTIEIKLSNKKIKTVKLKDNSFWEKVKRTFLLEHHHHHH
soluble on expression in E. coli: not soluble

MKPSMEKVLLQIALDLSSNLSSDLHYQRLINSIHQVFPCDASALFILDNDHCLKPVAVKGLSQAVLGRCFPPQVHPRLEAILQSKHPVRFESNSDLPDPFDGLLLVDENINIEVHDCLGCSLYVDDTLVGVLTLDALEVGAFKKIDDITIETFAALAAATLHNKALIKTLQDSNQQQKSINQTLI
soluble on expression in E. coli: not soluble

MIRFEIHGDNLTITDAIRNYIEEKVGKLERYFNNVPNAVAHVRVKTYSNSTTKIEVTIPLKDVTLRAEERHDDLYAGIDLITNKLERQVRKYKTRVNRKHRDRGDQDIFVAEVQESTTNNHADDIESENDIEIIRSKQFSLKPMDSEEAVLQMNLLGHDFFIFTDRETDGTSIVYRRKDGKYGLIETTELEHHHHHH
soluble on expression in E. coli: soluble

MGSDKIHHHHHHMKGFITNIQRMSIHDGPGIRSTIFLKGCNLRCKWCHNPETWSMKPQLQYIEDKCIHCFSCITVCEYEVLFIDSNRLSIHRERCTDCGKCTERCTSGALSWIGKEVDSSDIIHEILQDLIYYQKSGGGITLSGGEPLQQKDFALDILQKCREHRIHTAVETNLLTDVNTLEAFLPWVDLWMCDFKMADDTLHRKWTGHSNVPIIKNLEFLAKQAVPLTIRTPVIPNVNDSEEAIESICRFIRQLPNQPAYELLGFHSLGFVKFENLGMKNPLSNSAFLKKGQLQKLKEILIRYNLNNNKK
soluble on expression in E. coli: not soluble

MGHHHHHHSHMAFMVKSMVGGQLKNLTGSLGGGEDKGDGDKSAAEAQGMSREEYEEYQKQLVEEKMERDAQFTQRKAERATLRSHFRDKYRLPKNETDESQIQLAGGDVELPRELAKMIEEDTEEEEDKASVLGQLASLPGLDLSSLKDKAQTTLGDLKQSAEKCHIM
soluble on expression in E. coli: not soluble

MISNIFKISAALLLLTIVSEAKPCFGRCGGRPPPPCGLPPFLEDLPSDVQTKITEIWKDYKEGDKCYEEQGLTREIMESLPKDVRKSIHKRPPLPFLRGLPKDILAKFDAIFKDKSIPFSEKPEKIDALAQEVLTGDNLKKFQEFKEKKEKEMQEYKDKESKLSAAAKVANEKLEALGKQKFAILEELDENVKDELFDLWKSRPHGPPRHH
soluble on expression in E. coli: not soluble

MSLESENIISAADKARILAEALPYIRRFSGSVAVIKYGGNAMTEPALKEGFARDVVLLKLVGIHPVIVHGGGPQINAMLEKVGKKGEFVQGMRVTDKEAMDIVEMVLGGHVNKEIVSMINTYGGHAVGVSGRDDHFIKAKKLLIDTPEQNGVDIGQVGTVESIDTGLVKGLIERGCIPVVAPVGVGEKGEAFNINADLVAGKLAEELNAEKLLMMTNIAGVMDKTGNLLTKLTPKRIDELIADGTLYGGMLPKIASAVEAAVNGVKATHIIDGRLPNALLLEIFTDAGIGSMILGGGEDAEGHHHHHH
soluble on expression in E. coli: soluble
